Reference: patent US20220040297A1 (Chugai, published 2022)
Numbering of substitutions follows the chain as printed. In names and notes the source's numbering stands.

B1: GLS3000 V94F (antibody, name in Kabat numbering, V domains shown)
VH: QVQLVESGGGVVQPGRSLRLSCAASGFTFSNAWMHWVRQAPGKGLEWVAQIKAKSNNYATYYAESVKGRFTISRDDSKNSLYLQMNSLKTEDTAVYYCRYVHYGAYYGVDAWGQGTTVTVSS
VL: DIVMTQSPLSLPVTPGEPASISCRSSQSLVHSNRNTYLHWYQQKPGQAPRLLIYKVSNRFSGVPDRFSGSGSGTDFTLKISRVEAEDVGVYYCGQGTQFPYTFGQGTKLEIK
notes: one-arm format as m2
B2: GLS3000 Y96D (antibody, name in Kabat numbering, V domains shown)
VH: B1 VH
VL: B1 VL with F99V, Y101D
notes: one-arm format as m2
B3: GLS3000 Y96F (antibody, name in Kabat numbering, V domains shown)
VH: B1 VH
VL: B1 VL with F99V, Y101F
notes: one-arm format as m2
B4: GLS3000 Y96E (antibody, name in Kabat numbering, V domains shown)
VH: B1 VH
VL: B1 VL with F99V, Y101E
notes: one-arm format as m2
B5: GLS3000 Y32A (antibody, name in Kabat numbering, V domains shown)
VH: B1 VH
VL: B1 VL with Y37A, F99V
notes: one-arm format as m2
B6: GLS3000 V94A (antibody, name in Kabat numbering, V domains shown)
VH: B1 VH
VL: B1 VL with F99A
notes: one-arm format as m2
B7: GLS3000 V94I (antibody, name in Kabat numbering, V domains shown)
VH: B1 VH
VL: B1 VL with F99I
notes: one-arm format as m2
B8: GLS3000 V94M (antibody, name in Kabat numbering, V domains shown)
VH: B1 VH
VL: B1 VL with F99M
notes: one-arm format as m2
B9: GLS3000 V94H (antibody, name in Kabat numbering, V domains shown)
VH: B1 VH
VL: B1 VL with F99H
notes: one-arm format as m2
B10: GLS3000 Y96H (antibody, name in Kabat numbering, V domains shown)
VH: B1 VH
VL: B1 VL with F99V, Y101H
notes: one-arm format as m2
B11: GLS3000 V94L (antibody, name in Kabat numbering, V domains shown)
VH: B1 VH
VL: B1 VL with F99L
notes: one-arm format as m2
B12: GLS3000 Y96L (antibody, name in Kabat numbering, V domains shown)
VH: B1 VH
VL: B1 VL with F99V, Y101L
notes: one-arm format as m2
B13: GLS3000 V94D (antibody, name in Kabat numbering, V domains shown)
VH: B1 VH
VL: B1 VL with F99D
notes: one-arm format as m2
B14: GLS3000 Y32F (antibody, name in Kabat numbering, V domains shown)
VH: B1 VH
VL: B1 VL with Y37F, F99V
notes: one-arm format as m2
B15: GLS3000 Y32D (antibody, name in Kabat numbering, V domains shown)
VH: B1 VH
VL: B1 VL with Y37D, F99V
notes: one-arm format as m2
B16: GLS3000 V94P (antibody, name in Kabat numbering, V domains shown)
VH: B1 VH
VL: B1 VL with F99P
notes: one-arm format as m2
B17: GLS3000 V94N (antibody, name in Kabat numbering, V domains shown)
VH: B1 VH
VL: B1 VL with F99N
notes: one-arm format as m2
B18: GLS3000 V94Y (antibody, name in Kabat numbering, V domains shown)
VH: B1 VH
VL: B1 VL with F99Y
notes: one-arm format as m2
B19: GLS3000 V94G (antibody, name in Kabat numbering, V domains shown)
VH: B1 VH
VL: B1 VL with F99G
notes: one-arm format as m2
B20: GLS3000 V94K (antibody, name in Kabat numbering, V domains shown)
VH: B1 VH
VL: B1 VL with F99K
notes: one-arm format as m2
B21: GLS3000 V94T (antibody, name in Kabat numbering, V domains shown)
VH: B1 VH
VL: B1 VL with F99T
notes: one-arm format as m2
B22: GLS3000 V94R (antibody, name in Kabat numbering, V domains shown)
VH: B1 VH
VL: B1 VL with F99R
notes: one-arm format as m2
B23: GLS3000 Y32P (antibody, name in Kabat numbering, V domains shown)
VH: B1 VH
VL: B1 VL with Y37P, F99V
notes: one-arm format as m2
B24: GLS3000 V94W (antibody, name in Kabat numbering, V domains shown)
VH: B1 VH
VL: B1 VL with F99W
notes: one-arm format as m2
B25: GLS3000 V94S (antibody, name in Kabat numbering, V domains shown)
VH: B1 VH
VL: B1 VL with F99S
notes: one-arm format as m2
B26: GLS3000 V94Q (antibody, name in Kabat numbering, V domains shown)
VH: B1 VH
VL: B1 VL with F99Q
notes: one-arm format as m2
B27: GLS3000 V94E (antibody, name in Kabat numbering, V domains shown)
VH: B1 VH
VL: B1 VL with F99E
notes: one-arm format as m2
B28: CE115HA000 H35A (antibody, name in Kabat numbering, V domains shown)
VH: B1 VH with H35A
VL: B1 VL with F99V
B29: CE115HA000 A52aE (antibody, name in Kabat numbering, V domains shown)
VH: B1 VH with A53E
VL: B1 VL with F99V
B30: CE115HA000 A56L (antibody, name in Kabat numbering, V domains shown)
VH: B1 VH with A59L
VL: B1 VL with F99V
B31: CE115HA000 A60D (antibody, name in Kabat numbering, V domains shown)
VH: B1 VH with A63D
VL: B1 VL with F99V
B32: CE115HA000 A52aG (antibody, name in Kabat numbering, V domains shown)
VH: B1 VH with A53G
VL: B1 VL with F99V
B33: CE115HA000 A56Y (antibody, name in Kabat numbering, V domains shown)
VH: B1 VH with A59Y
VL: B1 VL with F99V
B34: CE115HA000 A99D (antibody, name in Kabat numbering, V domains shown)
VH: B1 VH with A105D
VL: B1 VL with F99V
B35: CE115HA000 A56K (antibody, name in Kabat numbering, V domains shown)
VH: B1 VH with A59K
VL: B1 VL with F99V
B36: CE115HA000 A52aS (antibody, name in Kabat numbering, V domains shown)
VH: B1 VH with A53S
VL: B1 VL with F99V
B37: CE115HA000 A60E (antibody, name in Kabat numbering, V domains shown)
VH: B1 VH with A63E
VL: B1 VL with F99V
B38: CE115HA000 A56G (antibody, name in Kabat numbering, V domains shown)
VH: B1 VH with A59G
VL: B1 VL with F99V
B39: CE115HA000 A32Y (antibody, name in Kabat numbering, V domains shown)
VH: B1 VH with A32Y
VL: B1 VL with F99V
B40: CE115HA000 A56N (antibody, name in Kabat numbering, V domains shown)
VH: B1 VH with A59N
VL: B1 VL with F99V
B41: CE115HA000 A56Q (antibody, name in Kabat numbering, V domains shown)
VH: B1 VH with A59Q
VL: B1 VL with F99V
B42: CE115HA000 A52aV (antibody, name in Kabat numbering, V domains shown)
VH: B1 VH with A53V
VL: B1 VL with F99V
B43: CE115HA000 A56D (antibody, name in Kabat numbering, V domains shown)
VH: B1 VH with A59D
VL: B1 VL with F99V
B44: CE115HA000 A52aD (antibody, name in Kabat numbering, V domains shown)
VH: B1 VH with A53D
VL: B1 VL with F99V
B45: CE115HA000 A52aP (antibody, name in Kabat numbering, V domains shown)
VH: B1 VH with A53P
VL: B1 VL with F99V

biological target: CD3ε homodimer protein (human, UniProt P07766 23-126, limits assumed); assay: SPR, immobilized CD3ε homodimer;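 further: biacore T200 surface plasmon resonance at 25 °C, antibody variants flowed as analytes over amine-coupled CD3ε homodimer on a CM4 chip, variant binding amount divided by that of GLS3000 antibody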
Sequence (P07766 23-126 limits assumed): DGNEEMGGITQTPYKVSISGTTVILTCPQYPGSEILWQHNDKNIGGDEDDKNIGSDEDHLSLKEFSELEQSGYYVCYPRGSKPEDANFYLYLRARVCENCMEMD

| ratio of amounts bound (vs GLS3000) | Binder |
| --- | --- |
| 0.71 | B1 |
| 0.17 | B2 |
| 1.17 | B3 |
| 0.17 | B4 |
| 0.24 | B5 |
| 1.05 | B6 |
| 0.66 | B7 |
| 0.44 | B8 |
| 0.78 | B9 |
| 0.23 | B10 |
| 0.44 | B11 |
| 0.32 | B12 |
| 0.89 | B13 |
| 0.29 | B14 |
| 0.23 | B15 |
| 1.26 | B16 |
| 1.05 | B17 |
| 0.63 | B18 |
| 0.48 | B19 |
| 0.57 | B20 |
| 0.93 | B21 |
| 0.66 | B22 |
| 0.24 | B23 |
| 0.58 | B24 |
| 0.93 | B25 |
| 0.76 | B26 |
| 0.5 | B27 |

biological target: T1, CD3ε homodimer protein (human, UniProt P07766 23-126, limits assumed, sulfo-tag or biotin label in some ECL assays); assay: SPR, CD3ε homodimer on chip;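 further: biacore SPR with antibody variants flowed as analyte over amine-coupled CD3ε homodimer on a CM chip, bound amount of each single-residue H chain variant over that of parent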
T1 construct: also called human CD3ε homodimer protein; CD3 (CD3ε)
T1 sequence (P07766 23-126 limits assumed): as above
Experimental: An appropriate amount of CD3ε homodimer protein was immobilized onto Sensor chip CM4 (GE Healthcare Japan Corp.) by the amine coupling method. Then, the antibody having an appropriate concentration was injected thereto as an analyte and allowed to interact with the CD3ε homodimer protein on the sensor chip. Then, the sensor chip was regenerated by the injection of 10 mmol/L glycine-HCl (pH 1.5). The assay was conducted at 25° C., and HBS-EP+ (GE Healthcare Japan Corp.) was used as a running buffer. […] Each parameter was calculated using Biacore T200 Evaluation Software (GE Healthcare Japan Corp.).
Specifically, when the amount of the antibody comprising CE115HA000 bound was defined as X and the amount of the H chain one-amino acid altered form bound was defined as Y, a value of Z (ratio of amounts bound)=Y/X was used.

| ratio of amounts bound vs CE115HA000 | Binder |
| --- | --- |
| 0.17 | B28 |
| 0.57 | B29 |
| 0.8 | B30 |
| 0.99 | B31 |
| 0.81 | B32 |
| 0.66 | B33 |
| 0.28 | B34 |
| 1.35 | B35 |
| 1.05 | B36 |
| 0.94 | B37 |
| 0.61 | B38 |
| 0.33 | B39 |
| 0.87 | B40 |
| 0.76 | B41 |
| 0.52 | B42 |
| 0.51 | B43 |
| 1.34 | B44 |
| 0.15 | B45 |
